Data: publication PMC12468279, “VEGF-VEGFR Signaling Mechanism Directs the Migration of Newborn Hemocytes from the Hematopoietic Site of Oyster Crassostrea gigas” (Cells, 2025)

Target: T1, recombinant PDGF domain of CgVEGF with a GST tag (rCgVEGF) (Crassostrea gigas, biotin (biotinylated; site not stated))
T1 chain: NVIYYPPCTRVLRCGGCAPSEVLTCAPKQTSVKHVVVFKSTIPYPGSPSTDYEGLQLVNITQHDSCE
Test: BLI; Octet K2 (ForteBio); biotinylated rCgVEGF immobilised on streptavidin biosensors; rCgVEGFR in solution at 1150, 1125, 843.75, 632.81 and 474.61 ug/mL; global fit to a 1:1 binding model; rTrx as control analyte
Settings: both partners purified

Kd: 879 nM
B1: recombinant extracellular domain of CgVEGFR with a Trx tag (rCgVEGFR) (domain or fragment)
chain: QLVVVEETDCLKRPCRNGGSCDDIDGDGNFTCGCLPQWSGHFCELDTNECLNPPCEHGGTCTNSHGGYFCACTEIWTGKNCEEFKRVTIVDPKPTMEIYPERERVDSENGSIYTSSGDIVLNSGENFTIECFGDYPIKLTFKSDRVAEAPDYLGMDIIRRPIANMSQNARAFGVIYLVSNPTYKYTGEYVCQYTENSLHTSKYIYIRDEDNLFLEKNKYPGVPIFKNSYLFEPLILPCHVSDPEADVKLLTNWGTEVQLPDSPITYDPKTGFLIEFPSYSFVGPFRCAASVNNGMMQTISYYVTFNVEYKPSPTLLPLGDLEIVLGEDFELRCQVTVPLSVQSVSIQWMYSSNENNVSLPISALMIAPGQRSDRVRFTRPVEDTSMASDKSKTYFSNLTVMNGMKMDQGRYTCNVTTGRSQSTAVSKNVILVGDGLLEIQQCKKGQEIADFRGNWTVITQEQQIGVQISCLIKSMPYPKVTWYFKGEELNFKNSTVSQRYNPTMLNTTRTLTNISLSIMLPGKEQVGLYEIIVEAGTKREYAHFQLVYQYKPVVLIPAINKDVPYLLPNTRYNVRALVSAVPPATSQGWLWQPCGELPSCKQNSNSWRNVTSDNYQRFNQSGHLKYYATNSKGTGEYVMKIKVAEYETGLGIHIDQEKPSIIQTFPLHVTCTATKWEYSNVKVVFWGETDSYWRDVNIQNGTTLLSHNTSLSWISELRIENFAPENVGLYGCEVDISSNSSKGHLSTGDALRVQMISLEKPVFTKNTLTDSVVETNMGHSYHVMDCSARGVPAPSIQWFKDGQLLNFTSEFLGLSLSDDNTSLTINKTDVVHSGIYVCEVENMNGVIYKNVTLQIKSSLQSQKLKTKVEKGT
